Data set [1] addresses T1, HDAC3 (Mus musculus, UniProt O88895).
T1 construct: endogenous in cells; host or cells: C3H10T1/2 cells expressing GFP-sLZIP
T1 sequence (O88895 1-428): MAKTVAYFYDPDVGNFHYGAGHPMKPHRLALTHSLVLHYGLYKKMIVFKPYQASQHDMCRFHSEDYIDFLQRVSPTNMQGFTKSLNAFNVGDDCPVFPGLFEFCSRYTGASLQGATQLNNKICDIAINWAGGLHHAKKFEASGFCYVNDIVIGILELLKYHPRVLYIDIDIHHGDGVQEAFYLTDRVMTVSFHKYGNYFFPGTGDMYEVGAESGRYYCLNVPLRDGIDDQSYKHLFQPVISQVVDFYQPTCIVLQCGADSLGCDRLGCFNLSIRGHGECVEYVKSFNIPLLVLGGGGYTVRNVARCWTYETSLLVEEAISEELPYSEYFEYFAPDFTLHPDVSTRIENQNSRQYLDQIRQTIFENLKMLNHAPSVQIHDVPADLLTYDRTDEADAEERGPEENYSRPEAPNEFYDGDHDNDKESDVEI
As to the kind of experiment: Fluorescence microscopy, subcellular localization of sLZIP and HDAC3 in C3H10T1/2 cells. To be noted: GFP-sLZIP, anti-HDAC3. Type of data set: cell-based. As for the experimental part:
C3H10T1/2 cells were transiently ci-transfected with Flag-sLZIP, GFP-PPARγ2 or GFP-sLZIP, and HDAC3 was grown on cover slip. After 24 hours, the cells were fixed with 4% paraformaldehyde for 10 minutes and permeabilized 0.2% Triton-X 100 for 5 minutes. The cells were incubated with 1% BSA for one hour, and then incubated with anti-Flag and anti-HDAC3 antibodies overnight at 4° C. The cells were washed with PBS, and then were incubated with Texas Red-labeled antibodies for 2 hours. A cover slide was washed with PBS, and mounted on and examined using a LSM 510 META confocal microscopy (Carl Zeiss, Jena, Germany).
For this purpose, 293T cells were transiently transfected with PPARγ2 (0.5 μg), (3-galactosidase (0.1 μg), FABP4-Luc reporter genes (0.2 μg) and sLZIP (0.1 μg). After the transfection, the cells were stimulated with or without 10 nM of RZD and 10 nM of TSA (FIG. 4A). A promoter activity was measured according to luciferase analysis. In the 293T cells, FABP4-Luc reporter genes, sLZIP, PPAR, β-galactosidase, and 100 nM of si-RNAs and HDAC1, 2, 3 and 8 for a control group were expressed. After the transfection, the cells were stimulated with or without 10 nM of RZD, and a promoter activity was measured (FIG. 4B). […] A protein complex was analyzed in SDS-PAGE, and anti-GST and anti-Flag antibodies were used for immunoblotting (FIG. 4E). *, P<0.05; **, P<0.01

Data set [2] has as its system HDAC3. As to the kind of experiment: HDAC3 ubiquitination (Ha-UB, GST pull-down) in 293T cells. Type of data set: cell-based. The conditions noted are these: ligand treated (10 nM RZD, 24 hours). The protocol:
Therefore, in order to understand a regulation mechanism of sLZIP in the PPARγ2 transcriptional activity by binding to the FABP4 promoter region, an effect of sLZIP on the interaction between PPARγ2 and HDAC3 was examined. For this purpose, 293T cells were transfected with GST-HDAC3, Myc-PPARγ2 and Flag-sLZIP, and were treated or not treated with 10 nM of RZD for 24 hours. Cell lysates were subjected to GST pull-down analysis using a glutathione 4B bead, and a protein complex was analyzed in SDS-PAGE, and then immunoblotted with anti-GST, anti-Myc and anti-Flag antibodies (FIG. 6A). GST-HDAC3, GST-PPARγ2, Myc-PPARγ2, Flag-sLZIP and Ha-UB were expressed in the 293T cells, and the cells were treated with 10 nM of RZD for 24 hours. Cell lysates were subjected to GST pull-down analysis (FIG. 6B). GST-PPARγ2 and Flag-sLZIP were expressed in the 293T cells and treated with 10 nM of RZD for 24 hours. Cell lysates were subjected to GST pull-down analysis, and a protein complex was analyzed in SDS-PAGE, and then immunoblotted with anti-PGC1α, anti-GST and anti-Flag antibodies (FIG. 6C).

Data set [3] relates to CREB element in the FABP4 enhancer. Kind of data set: Chromatin immunoprecipitation (ChIP) with HA-sLZIP in C3H10T1/2 cells. The conditions noted are these: RZD treated or not. Type of data set: cell-based. As for the experimental part:
C3H10T1/2 cells grown in a 100-mm culture dish were infected with adenovirus HA-sLZIP. After the infection, the cells remained in a growth medium until the cells reaches 100% confluence, and the medium was exchanged with a differentiation medium. The cells were washed with 1×PBS, the medium was treated with 1% formaldehyde for 10 minutes at room temperature, and then glycine was added for 5 minutes at a final concentration of 0.125 M. The cells were strapped with PBS, and centrifuged at 1000×g for 5 minutes at 4° C. ChIP analysis was performed such that anti-HA antibodies and anti-rabbit IgG serving as an internal control group were used and precipitated together with a DNA-protein complex. An enhancer region of FABP4 including a functional CREs was amplified from the prepared DNA.
A DNA binding ability of sLZIP with various elements in the FABP4 enhancer region was examined. For this purpose, recombinant His-sLZIP fusion proteins (3 μg) were incubated with γ-^32P-labeled oligonucleotide probes containing expected CREB binding elements (FIG. 7B). The γ-^32P-labeled oligonucleotide probes were incubated while an amount of purified His-sLZIPs was increased. For competition analysis, unlabeled CREB oligonucleotide probes of 100-fold excess were used and His antibodies were added to a reaction mixture on ice for additional 40 minutes (FIG. 7C). […]

Data set [4] is described as follows: Solubility of sLZIP. Type of data set: physicochemical. To be noted: saline or buffer solution.

B1: sLZIP: human small leucine-zipper protein, isoform of LZIP, 354 amino acids, no transmembrane domain; GenBank FJ263669, SEQ ID NO: 1 (protein, listed as Homo sapiens)
chain: MELELDAGDQDLLAFLLEESGDLGTAPDEAVRAPLDWALPLSEVPSDWEVDDLLCSLLSPPASLNILSSSNPCLVHHDHTYSLPRETVSMDLESESCRKEGTQMTPQHMEELAEQEIARLVLTDEEKSLLEKEGLILPETLPLTKTEEQILKRVRRKIRNKRSAQESRRKKKVYVGGLESRVLKYTAQNMELQNKVQLLEEQNLSLLDQLRKLQAMVIEISNKTSSSSMYSSDTRGSLPAEHGVLSRQLRALPSEDPYQLELPALQSEVPKDSTHQWLDGSDCVLQAPGNTSCLLHYMPQAPSAEPPLEWPFPDLFSEPLCRGPILPLQANLTRKGGWLPTGSPSVILQDRYSG
Consider B1, for which the “subcellular localization of sLZIP and HDAC3” value in data set [1] is listed as “localized in the nucleus together with HDAC3”. For the same molecule, the HDAC3 ubiquitination entry in data set [2] is “inhibited HDAC3 ubiquitination”. Further, in data set [3], the “recruitment to CREB element in the FABP4 enhancer (ChIP)” value was “gathered in the CREB element in the FABP4 enhancer”. Moreover, the solubility entry in data set [4] is listed as “very soluble in a saline or a buffer solution”.

The record behind these values is patent publication US10058586B2, “Use of human small leucine zipper protein in adipocyte differentiation procedure” (Korea University Research and Business Foundation, priority 2013, dated 2018).
